In article doi:10.1101/2022.08.26.505460:

Target: FN3^WDR5-cpYFP fusion protein

Kd: 727 nM
Substance: WD40-repeat protein 5 (WDR5) (from UniProt P61964 31-334) (natural protein)
